This is an account of results in patent US20230022970A1, “USE OF GLIAL CELL LINE-DERIVED NEUROTROPHIC FACTOR (GDNF) FOR THE TREATMENT OF ENTERIC NEUROPATHIES” (TRANSFERT PLUS, société en commandite, priority 2019, published 2023).

Series [1] has as its system Hol^Tg/Tg mice (model for Trisomy 21 [Collagen VI]-associated HSCR). Description: GDNF enema treatment, survival of Hol^Tg/Tg pups. The class given is in vivo, mouse. To be noted: 10 μg in 10 μl PBS enema once daily P4-P8, Hol^Tg/Tg mice. Here is the method: (§1) For all enema treatments, mutant mouse pups were identified at P3 via pigmentation-based genotyping. Unless specified otherwise (see FIG. 1), 10 μl enemas consisting of a 1 μg/μl solution of recombinant human mature GDNF (Peprotech cat. #450-10) diluted in PBS were administered daily between P4 to P8. […] Other tested molecules (1 μg/μl solution in 10 μl enemas) included the serotonin receptor (5-HT4R) agonist RS67506 (R&D Systems, Cat. #0990), Noggin (Sigma, Cat. # SRP4675), endothelin-3 (Sigma, Cat. # E9137), serotonin (Sigma, Cat. # H9523), and L-ascorbic acid (Sigma, Cat. # A4403). Enemas were administered using a 24-gauge gavage needle (Fine Science Tools, Canada) attached to a micropipette. The head of the gavage needle was introduced in the rectum just beyond the anus (pre-lubricated with Vaseline™), and enemas were injected over the course of a few seconds. Pups were then placed back with their mother, and either sacrificed at P20 for tissue analysis or checked daily to track survival.
It was first tested if GDNF enemas in young mice could enhance enteric neuron numbers and restore function in distal aganglionic bowel using three mouse models of short-segment HSCR. Selected lines were Holstein (Hol^Tg/Tg; a model for Trisomy 21 [Collagen VI]-associated HSCR) (39), TashT (TashT^Tg/Tg; a model for male-biased HSCR) (40), and Piebald-lethal (Ednrb^S-l/s-l; a model for EDNRB mutation-associated HSCR) (41). The enema volume necessary to fill whole colon, concentration of GDNF homodimer (30 kDa), treatment time window, as well as duration and frequency of therapy were first determined with Hol^Tg/Tg pups (FIGS. 1A-D). […] Remarkably, the selected treatment (i.e. daily administration of 10 μg GDNF in PBS as 10 μl enemas for 5 consecutive days between postnatal day [P]4 to P8) prevented death by megacolon in about half of Hol^Tg/Tg mice at P28, the maximum age of survival for control Hol^Tg/Tg mice (FIG. 2A). Most animals surviving to P28 reached adult age after GDNF treatment and mice evaluated could reproduce (two tested breeding pairs were fertile). […]

A further series concerns Hol^Tg/Tg mice. The series can be described thus: Time-course immunofluorescence of HisGDNF distribution and RET expression in distal colon. The class given is in vivo, mouse. Here is the method: as §1
Tissue labelling and imaging. […] EdU was detected using the Invitrogen Click-iT EdU Imaging Kit (ThermoFisher Scientific, Cat. # C10337) in accordance with the manufacturer's instructions. […]

Where no end group is shown, it is not given here.

On to “endothelin-3 (CTCFTYKDKECVYYCHLDIIW; ends and bridges not checked; cysteine pairing not given here; UniProt P14138 97-117, looked up) [endothelin-3 monomer (26 kDa), Sigma Cat. # E9137, tested neurotrophic molecule]”, for which the life expectancy result in series [1] was “failed to increase life expectancy”. Turning to `COc1cc(N)c(Cl)cc1C(=O)CCC1CCN(CCNS(C)(=O)=O)CC1` [RS67506], the life expectancy result in series [1] is “failed to increase life expectancy”.

B1: HisGDNF: 6×His-tagged version of GDNF used for enema treatments (protein, UniProt P39905 78-211, looked up)
Glial cell line-derived …: SPDKQMAVLPRRERNRQAAAANPENSRGKGRRGQRGKNRGCVLTAIHLNVTDLGLGYETKEELIFRYCSGSCDAAETTYDKILKNLSRNRRLVSDKVGQACCRPIAFDDDLSFLDDNLVYHILRKHSAKRCGCI
modifications: 6xHis tag
notes: 6×His-tagged version of GDNF used for enema treatments
On to B1, for which the “distribution in colon submucosa, smooth muscles and subsets of enteric neurons” value with Hol^Tg/Tg mice (distal colon 2 h after treatment on P4, P6 and P8, Hol^Tg/Tg) was “accumulated over time”. The “levels of the main GDNF receptor RET” value with Hol^Tg/Tg mice (distal colon, P4-P8 treatment, Hol^Tg/Tg) is “increased”.

B2: Noggin: Noggin homodimer (46 kDa), Sigma Cat. # SRP4675, tested neurotrophic molecule (protein, UniProt Q13253 28-232, looked up)
Noggin: QHYLHIRPAPSDNLPLVDLIEHPDPIFDPKEKDLNETLLRSLLGGHYDPGFMATSPPEDRPGGGGGAAGGAEDLAELDQLLRQRPSGAMPSEIKGLEFSEGLAQGKKQRLSKKLRRKLQMWLWSQTFCPVLYAWNDLGSRFWPRYVKVGSCFSKRSCSVPEGMVCKPSKSVHLTVLRWRCQRRGGQRCGWIPIQYPIISECKCSC
For the molecule B2, the life expectancy entry in series [1] is listed as “failed to increase life expectancy”.
